B1: HDV Ribozyme (parent)
chain: GGCCGGCAUGGUCCCAGCCUCCUCGCUGGCGCCGGCUGGGCAACAUUCCGAGGGGACCGUCCCCUCGGUAAUGGCGAAUGGGACCCA

Variants of: B1
Assay: self-cleavage, relative activity (ratio to wild type); higher = more cleavage; co-transcriptional

**Q.** For GGCCGGCAUAGUCCCAGCCUCCUCGCUGGCGCCGGCUGGGCAACAGUCCGAGGGGACCGUCCCCUCGGUAAUGGCGAAUGGGACCCA [G10A U46G], which self-cleavage is on record?
**A.** The self-cleavage was 0.536.

**Q.** Which self-cleavage does the source give for GGCCGGCAUCGUCCCAGCCUCCUCGCUGGCGCCGGCUGGGCAACAUUCCGAGGGGACCGUCCCCUCGGUAAGGGCGAAUGGGACCCA [G10C U72G] here?
**A.** Its self-cleavage is 0.369.

**Q.** Which self-cleavage does the source give for GGCCGGCAUCGUCCCAGCCUCCUCGCUGGCGCCGGCUGGGCAACAUUCCGAGGGGACCGUCCCCUCGGUAAAGGCGAAUGGGACCCA [G10C U72A] here?
**A.** Its self-cleavage is 0.415.

**Q.** For GGCCGGCAUCGUCCCAGCCUCCUCGCUGGCGCCGGCUGGGCAACAUUCCGAGGGGACCGUCCCCUCGGUAAUGGCGAAUGGUACCCA [G10C G82U], which self-cleavage is on record?
**A.** The self-cleavage was 0.348.

**Q.** For GGCCGGCAUCGUCCCAGCCUCCUCGCUGGCGCCGGCUGGACAACAUUCCGAGGGGACCGUCCCCUCGGUAAUGGCGAAUGGGACCCA [G10C G40A], which self-cleavage is on record?
**A.** Its self-cleavage is 0.95.

**Q.** Which self-cleavage does the source give for GGCCGGCAUAGUCCCAGCCUCCUCGCCGGCGCCGGCUGGGCAACAUUCCGAGGGGACCGUCCCCUCGGUAAUGGCGAAUGGGACCCA [G10A U27C] here?
**A.** Its self-cleavage is 0.759.

**Q.** Which self-cleavage does the source give for GGCCGGCAUCGUCCCAGCCUCCUCGCUGGCGCCGGCUGGGCAACAUUCCGAGGGGACCGACCCCUCGGUAAUGGCGAAUGGGACCCA [G10C U60A] here?
**A.** Its self-cleavage is 0.932.

**Q.** With GGCCGGCAUUGUCCCGGCCUCCUCGCUGGCGCCGGCUGGGCAACAUUCCGAGGGGACCGUCCCCUCGGUAAUGGCGAAUGGGACCCA [G10U A16G] as the variant, how does the self-cleavage read?
**A.** The self-cleavage was 0.618.

**Q.** Which self-cleavage does the source give for GGCCGGCAUUGUCCCCGCCUCCUCGCUGGCGCCGGCUGGGCAACAUUCCGAGGGGACCGUCCCCUCGGUAAUGGCGAAUGGGACCCA [G10U A16C] here?
**A.** Its self-cleavage is 0.906.

**Q.** With GGCCGGCAUCGUCCCAGCCUCCUCGCUGGCGCCGGCUGGGCAACAUUCCGAGGGGACCGUCCCCUCGGUAAUGGUGAAUGGGACCCA [G10C C75U] as the variant, how does the self-cleavage read?
**A.** Its self-cleavage is 0.109.

**Q.** For GGCCGGCAUAGUCCCAGCCUCCUCGCUGGCGCCGGCUGGGCAACAUUCCGAGGGGACCGUCCCCUCGGUAAUGGCUAAUGGGACCCA [G10A G76U], which self-cleavage is on record?
**A.** Its self-cleavage is 0.997.

**Q.** For GGCCGGCAUCCUCCCAGCCUCCUCGCUGGCGCCGGCUGGGCAACAUUCCGAGGGGACCGUCCCCUCGGUAAUGGCGAAUGGGACCCA [G10C G11C], which self-cleavage is on record?
**A.** Its self-cleavage is 0.462.

**Q.** For GGCCGGCAUCAUCCCAGCCUCCUCGCUGGCGCCGGCUGGGCAACAUUCCGAGGGGACCGUCCCCUCGGUAAUGGCGAAUGGGACCCA [G10C G11A], which self-cleavage is on record?
**A.** The self-cleavage was 0.38.

**Q.** For GGCCGGCAUCGUCCCAGCCUCCUCGCUGGCGCCGGCUGGGCAACAUUCCGAGGGAACCGUCCCCUCGGUAAUGGCGAAUGGGACCCA [G10C G55A], which self-cleavage is on record?
**A.** Its self-cleavage is 1.11.

**Q.** Which self-cleavage does the source give for GGCCGGCAUCGUCCCAGCCUCCUCGCCGGCGCCGGCUGGGCAACAUUCCGAGGGGACCGUCCCCUCGGUAAUGGCGAAUGGGACCCA [G10C U27C] here?
**A.** The self-cleavage was 0.942.

**Q.** With GGCCGGCAUAGUCCCAGCCUCCUCGCUGGCGCCGGCUGGGCAACAUUCCGAGGGGACCGUCCCCUCGGCAAUGGCGAAUGGGACCCA [G10A U69C] as the variant, how does the self-cleavage read?
**A.** Its self-cleavage is 0.997.

**Q.** Which self-cleavage does the source give for GGCCGGCAUCGUCCCAGCCUCCUCGCUGGCGCCGGCUGGGCAACAUUCCGAGGGGACCGUCCCCUCGGUAAUGGCGAAUGAGACCCA [G10C G81A] here?
**A.** The self-cleavage was 0.131.

**Q.** For GGCCGGCAUCGUCCCAGCCUCCUCGCUGGCGCCGGCUGGGCAACAUUCCGAGGGGACCGUCCCCUCGGUAAUGGCGAACGGGACCCA [G10C U79C], which self-cleavage is on record?
**A.** The self-cleavage was 0.132.

**Q.** For GGCCGGCAUCGUCCCAGCCUCCUCGCUGGCGCCGGCUGGGCAACAUCCCGAGGGGACCGUCCCCUCGGUAAUGGCGAAUGGGACCCA [G10C U47C], which self-cleavage is on record?
**A.** The self-cleavage was 0.332.

**Q.** Which self-cleavage does the source give for GGCCGGCAUCGUCCCAGCCUCCUCGCUGGCGCCGGCUGGGCAACAUUCCGAGGGGACCGUCCCCUCGGUAAUGGCGAUUGGGACCCA [G10C A78U] here?
**A.** Its self-cleavage is 0.222.

**Q.** With GGCCGGCAUCGUCCCAGCCUCCUCGCUGGCGCCGGCUGGGCAACAUUCCGAGGGGACCGUCCCCUCGGUAAUGGCGACUGGGACCCA [G10C A78C] as the variant, how does the self-cleavage read?
**A.** Its self-cleavage is 0.185.

**Q.** Which self-cleavage does the source give for GGCCGGCAUCGUCCCAGCCUCCUCGCUGGCGCCGGCUGGGCAACAUUCCGAGGGGACCGUCCCCUCGGUAAUGGCGAAUGGGACCCC [G10C A87C] here?
**A.** Its self-cleavage is 1.17.

**Q.** With GGCCGGCAUCGUCCCAGCCUCCUCGCUGGCGCCGGCUGGGCAACAUUCCGAGGGGACCGUCCCCUCGGUAAUGGCGAAUGGGACCCG [G10C A87G] as the variant, how does the self-cleavage read?
**A.** The self-cleavage was 0.887.

**Q.** With GGCCGGCAUAGUCCCAGCCUCCUCGCUGGCGCCGGCUGGGCAACAUUCCGAGGGGACCGUCCCCGCGGUAAUGGCGAAUGGGACCCA [G10A U65G] as the variant, how does the self-cleavage read?
**A.** Its self-cleavage is 0.767.

**Q.** For GGCCGGCAUCGACCCAGCCUCCUCGCUGGCGCCGGCUGGGCAACAUUCCGAGGGGACCGUCCCCUCGGUAAUGGCGAAUGGGACCCA [G10C U12A], which self-cleavage is on record?
**A.** Its self-cleavage is 0.123.

**Q.** With GGCCGGCAUCGUCCCAGCCUCCUCGCUGGCGCCGGCUGGGCAACAUUCCGAGGGGAUCGUCCCCUCGGUAAUGGCGAAUGGGACCCA [G10C C57U] as the variant, how does the self-cleavage read?
**A.** The self-cleavage was 1.11.

**Q.** With GGCCGGCAUAGUCCCAGCCUCCUCGCUGGCGCCGGCUGGGCAACAUUCCGAGGGGACCGUCCCCUCGGUAAAGGCGAAUGGGACCCA [G10A U72A] as the variant, how does the self-cleavage read?
**A.** The self-cleavage was 0.485.

**Q.** For GGCCGGCAUCGUCCCAGCCUCCUCGCUGGCGCCGGCUGGGCAACAUUCCGAGUGGACCGUCCCCUCGGUAAUGGCGAAUGGGACCCA [G10C G53U], which self-cleavage is on record?
**A.** The self-cleavage was 0.91.

**Q.** For GGCCGGCAUCGUCCCAGCCUCCUCGCUGGCGCCGGCUGGGCAACAUUCCGAGGGGACCGUGCCCUCGGUAAUGGCGAAUGGGACCCA [G10C C61G], which self-cleavage is on record?
**A.** Its self-cleavage is 0.808.

**Q.** For GGCCGGCAUUGUCCCAGCCUCCUCGCUGGCGCCGGCUGGGCAACUUUCCGAGGGGACCGUCCCCUCGGUAAUGGCGAAUGGGACCCA [G10U A45U], which self-cleavage is on record?
**A.** Its self-cleavage is 0.506.

**Q.** With GGCCGGCAUCGUCCCAGCCUCCUCGCUGGCGCCGGCUGGGCAACAUUCCGAGGGGACCGUCCUCUCGGUAAUGGCGAAUGGGACCCA [G10C C63U] as the variant, how does the self-cleavage read?
**A.** Its self-cleavage is 1.03.

**Q.** Which self-cleavage does the source give for GGCCGGCAUCGUCCCAGCCUCCUCGCUGGCGCCGGCUGGGCAACAUUCCGAGGGGACCGUCCCCUCGGUAAUGGCGAAUGGGACCAA [G10C C86A] here?
**A.** The self-cleavage was 1.04.
